Our source for the Km, kcat and kcat/Km values is patent US5143839A, “Assay of endopeptidases and novel purified bacterial enzyme” (Ramot Ltd., priority 1989, dated 1992).

Substrate in data set [1]: CC(C)C[C@H](NC(=O)[C@H](C)NC(=O)[C@H](C)NC(=O)CCC(=O)O)C(=O)Nc1ccc([N+](=O)[O-])cc1
Briefly: Kinetic parameters of hydrolysis of Suc-Ala-Ala-Leu-NH-Np (Lineweaver-Burk). The class given is biochemical, bovine. The note with it: other: (S) range 0.04-4.0 mM, 10 mM CaCl2, pH 7.5, 25° C., enzyme 2.2×10^-9 M. How it is done:
(§1) Neutral endopeptidase and neutral proteinase activities were assayed by the two-stage assay using the synthetic substrate Suc-Ala-Ala-Leu-NH-Np supplemented with Streptomyces griseus aminopeptidase, usually 6-7 μg/ml. Assays were performed in 0.1M NaCl-0.05M Tris.HCl, pH 7.5 at 25° C., unless otherwise stated, with or without 0.01M CaCl2. Assay volume was 1 ml or 2.5 ml when using a Varian Techtron spectrophotometer or 0.2 ml at 23° C. when performed with microplates (Munc Immuno Plate II F) using a Kinetic Microplate Reader (Molecular Devices Corp.). Activity was measured by following the increase in absorbance at 405 nm, due to the release of 4-nitroaniline, E405 =10,600M^-1 cm^-1 [14 ]. Molar concentration of thermolysin was estimated using A280 1% =17.65 [15] and molecular mass of 34,600 Da; molar concentration of bovine kidney neutral endopeptidase by protein determination and molecular mass of 90 kDa, deduced from SDS PAGE. Both endopeptidase 24.11 from bovine kidney and thermolysin cleave the Ala-Leu bond of the compound at a very fast rate (Table 3). […]
(§2) Reactions were carried out in the presence of 10 mM CaCl2 at pH 7.5, 25° C. […] Values of kcat and Km were determined by Lineweaver-Burk plots.

Substrate in data set [2]: CC(C)C[C@H](NC(=O)[C@H](C)NC(=O)[C@H](C)NC(=O)CCC(=O)O)C(=O)Nc1ccc([N+](=O)[O-])cc1
The description is as above. The class given is biochemical. The note with it: other: (S) range 0.4-4.0 mM, 10 mM CaCl2, pH 7.5, 25° C., enzyme 3.0×10^-10 M. How it is done:
as §1, with “3). The Leu residue of the substrate interacts with the major hydrophobic specificity sites of the enzymes (S'1), whereas the two Ala residues interact with additional subsites (S1, S2), thereby contributing to catalysis and/or binding. Even the 4-nitroaniline leaving group probably interacts with the enzyme at subsite S'2. Previously reported assays of endopeptidase 24.11 usually utilized a hydrophobic Phe residue, but Leu seems preferable in reaching higher kcat values. The rapid hydrolysis of the Leu residue is also preferable for the present two-stage assay utilizing Steptomyces aminopeptidase, since this enzyme very rapidly hydrolyzes the product of the endopeptidase attack, Leu-NH-Np.” for “3).”
as §2

B1: bovine kidney neutral endopeptidase 24.11 (Bos taurus) (protein)
chain: MGRSESQMDITDINTPKPKKKQRWTPLEISLSVLVLLLTIIAVTMIALYATYDDGICKSSECIKSAARLIQNMDATVEPCTDFFKYACGGWLKRNVIPETSSRYSNFDILRDELEVVLKDVLQEPKTEDIIAVQKAKMLYRSCINETAIESRGGEPLLRLLPDIYDWPVALENWEQKYGSSWTAEKSIAQLNSKYGKKVIINFFVGTDDKNSTNHIIHIDQPQLGLPSRDYYECTAAYKEACTAYVDFMISVAKLIRQERGLPIDENQLSLEMNKVMDLEKEIANATTKSEDRNDPMLLYNKMTLAEVQNKFSLEFSGKPFSWSNFTNEIMSTVNINIPHEEEVIVYAPEYLTNLKLILAKYSARDLQNLMSWRFIMDLVSSLSRNYKESRNAFRKALYGTTSETATWRRCANYVNGNMENAVGRLYVEAAFPGDSKHVVEDLIAQIRAVFIQTLDDLTWMDAETKKKAEEKALAIKERIGYPDDIISNDDKLNKEYLELSYQEEEYFENIIQNLKFGQNRQLKKLREKVDKDEWISGAAVVNAFYSSGRNQIVFPAGILQPPFFSAQQPKSLNYGGIGMVIGHEITHGFDDNGRNFNKDGDLVDWWTQQSANNFKDLSQCMVYQYGNFSWDLANGQHLNGINTLGENIADNGGIGQAYRAYQNYVKKHGEEKLLPGLDLNHRQLFFLNFAQVWCGTYRTEYALNSIKTDVHSPGNFRIIGTLQNSPQFSEAFHCRKNSYMNPEKKCRVW
notes: Endopeptidase 24.11 from bovine kidney was purified by Triton X-100 extraction; from tissue; host or cells: bovine kidney
The term Km denotes the concentration of substrate that gives half-maximal velocity. In general, kcat refers to the maximal rate divided by the concentration of active sites. As to B1, in data set [1], the Km came to 150 µM and the kcat came to 120 s⁻¹.

B2: Thermolysin (Bacillus thermoproteolyticus) (protein)
chain: ITGTSTVGVGRGVLGDQKNINTTYSTYYYLQDNTRGNGIFTYDAKYRTTLPGSLWADADNQFFASYDAPAVDAHYYAGVTYDYYKNVHNRLSYDGNNAAIRSSVHYSQGYNNAFWNGSQMVYGDGDGQTFIPLSGGIDVVAHELTHAVTDYTAGLIYQNESGAINEAISDIFGTLVEFYANKNPDWEIGEDVYTPGISGDSLRSMSDPAKYGDPDHYSKRYTGTQDNGGVHINSGIINKAAYLISQGGTHYGVSVVGIGRDKLGKIFYRALTQYLTPTSNFSQLRAAAVQSATDLYGSTSQEVASVKQAFDAVGVK
As to B2, in data set [2], the Km is 4200 µM, the kcat was 1200 s⁻¹ and the kcat/Km is recorded as 0.29 M^-1 s^-1 × 10^-6.
